This is an account of results in patent US20230357790, “SELF-TARGETING EXPRESSION VECTOR” (Touchlight IP Limited, published 2023).

This series has as its target Streptavidin (UniProt P22629 P22629:25-183). The experiment in a line: no specific binding to plate; same buffer, room temp. As to conditions: chain copies: 4. As to the method: Obtained vectors were tested for binding a streptavidin-coated plate. The amount of DNA retained on the plate was detected by pico-green incorporation assay.
DNA was mixed with streptavidin-coated plate in binding buffer for 2 h, at room temp. Plate was washed 3× with same binding buffer, and the DNA that was bound to the plate was detected with PicoGreen assay in plate, without detaching DNA. [0490] Binding buffer (10×) [0491] 1 M NaCl [0492] 20 mM MgCl2 [0493] 50 mM KCl [0494] 10 mM CaCl2) [0495] 200 mM Tris-HCl, pH 7.6

Streptavidin, sequence (P22629 25-183, one chain of several): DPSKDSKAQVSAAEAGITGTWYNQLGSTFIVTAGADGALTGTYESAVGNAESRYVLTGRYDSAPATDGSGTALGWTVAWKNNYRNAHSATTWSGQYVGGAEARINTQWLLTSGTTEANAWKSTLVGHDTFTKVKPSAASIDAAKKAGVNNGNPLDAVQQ

B1: noApt vector cap (control) (structured_DNA)
DNA: CTGCTCACCTGCCAGCTACGGACGCGGAACGCGTCCGTAGCTGGCAGGTGAGCAG
As to B1, the binding result is “no binding”.
